Where only a bound is given, the exact number is not on record here.

Holding throughout (assay): fluorescence polarisation
In experiment [1] the target is Bcl-w (c-myc-tagged, without the C-terminal trans-membrane region) (human).
The target in experiment [2] is Bcl-xL (c-myc-tagged, without the C-terminal trans-membrane region) (human).
Experiment [3] has as its target Bfl-1 (c-myc-tagged, without the C-terminal trans-membrane region) (human).
Experiment [4] deals with Mcl-1 (c-myc-tagged, without the N-terminal domain and the C-terminal trans-membrane region) (human).
The target of experiment [5] is Bcl-2 (c-myc-tagged, without the C-terminal trans-membrane region) (human).

Sequence of Bcl-w (c-myc-tagged, without the C-terminal trans-membrane region) (human) (Q92843 1-164): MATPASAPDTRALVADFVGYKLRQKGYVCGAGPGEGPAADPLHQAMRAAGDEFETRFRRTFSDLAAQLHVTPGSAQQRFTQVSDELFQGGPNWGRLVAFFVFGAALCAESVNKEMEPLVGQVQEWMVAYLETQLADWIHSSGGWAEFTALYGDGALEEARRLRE

Regarding “Bim_A2eT_E2gG, N-terminal fluorescein (peptide; other documents disagree on this pair)”, the Kd in experiment [1] stood at 94 nM.
For “Bim 23-mer, N-terminal fluorescein (peptide)”, the values for the Kd in experiment [2], in experiment [3] and in experiment [4] were 2.6 nM, less than 1 nM and less than 1 nM, respectively.
As for “Bim_A2eT_I3dL, N-terminal fluorescein (peptide)”, the Kd in experiment [5] was 37 nM; in experiment [2], 7.6 nM; in experiment [3] it was 120 nM; in experiment [4], less than 1 nM.
Taken in the same sequence, the figures for “Bim_A2eT, N-terminal fluorescein (peptide)” were 43 nM, 17 nM, 31 nM and less than 1 nM.
“Bim_A2eT_I3dL, N-terminal fluorescein (peptide; other documents disagree on this pair)” returned an equilibrium dissociation constant (Kd) in experiment [1] of 12 nM. That is a double-digit nanomolar value.
“Bim_A2eT_F4aI, N-terminal fluorescein (peptide)”: the dissociation constant (Kd) is 150 nM in experiment [5], 110 nM in experiment [2], 7.9 nM in experiment [3] and less than 1 nM in experiment [4].
Taken in the same sequence, the figures for “Bim_A2eT_I2dM, N-terminal fluorescein (peptide)” were 210 nM, 83 nM, 150 nM and less than 1 nM.
In experiment [1], “Bim_A2eT, N-terminal fluorescein (peptide; other documents disagree on this pair)” came in with a dissociation constant (Kd) of 39 nM.
In the case of “Bim_A2eT_E2gG, N-terminal fluorescein (peptide)”, the equilibrium dissociation constant (Kd) in experiment [5] is 150 nM; in experiment [2] it was 37 nM; in experiment [4], 1.6 nM.
The substance “Bim_A2eT_F4aI, N-terminal fluorescein (peptide; other documents disagree on this pair)” came in with a dissociation constant Kd in experiment [1] of 16 nM.
In experiment [1], “Bim_A2eT_I2dM, N-terminal fluorescein (peptide; other documents disagree on this pair)” registered a Kd of 260 nM.

Values taken from publication PMC4168798.
